Data on three substances can be found in patent US10087225B2, “Formulation of MK2 inhibitor peptides” (MOERAE MATRIX, INC., priority 2015, dated 2018).

Experiment in all cases: Kinase Profiling Assay
What all share (assay type): biochemical

The target of one experiment is T1, BrSK2(h) (Homo sapiens, UniProt Q8IWQ3).
T1 sequence (Q8IWQ3 1-736): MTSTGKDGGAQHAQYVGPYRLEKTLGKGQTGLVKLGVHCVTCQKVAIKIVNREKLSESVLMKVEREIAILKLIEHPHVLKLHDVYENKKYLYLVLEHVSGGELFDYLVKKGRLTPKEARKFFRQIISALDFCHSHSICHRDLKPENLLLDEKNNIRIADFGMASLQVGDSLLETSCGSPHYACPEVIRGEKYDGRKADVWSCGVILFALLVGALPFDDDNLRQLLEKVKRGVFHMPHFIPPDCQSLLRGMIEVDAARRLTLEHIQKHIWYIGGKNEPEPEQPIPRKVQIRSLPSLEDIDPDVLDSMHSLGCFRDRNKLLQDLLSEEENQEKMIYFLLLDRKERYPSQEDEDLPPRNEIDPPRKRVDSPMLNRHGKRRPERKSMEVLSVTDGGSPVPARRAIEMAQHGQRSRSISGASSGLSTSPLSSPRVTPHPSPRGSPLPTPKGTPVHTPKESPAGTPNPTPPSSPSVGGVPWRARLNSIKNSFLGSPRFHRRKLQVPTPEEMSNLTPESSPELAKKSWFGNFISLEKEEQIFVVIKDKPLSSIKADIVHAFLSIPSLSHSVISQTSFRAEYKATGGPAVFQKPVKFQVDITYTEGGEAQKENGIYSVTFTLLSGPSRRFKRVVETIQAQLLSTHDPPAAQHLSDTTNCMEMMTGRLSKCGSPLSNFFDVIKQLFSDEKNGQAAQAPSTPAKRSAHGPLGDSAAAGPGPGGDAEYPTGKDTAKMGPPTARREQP

The next experiment addresses cKit(V654A)(h) (Homo sapiens, UniProt P10721, V654A).
The target in another experiment is T2, SGK(h) (Homo sapiens, UniProt O00141).
T2 sequence (O00141 1-431): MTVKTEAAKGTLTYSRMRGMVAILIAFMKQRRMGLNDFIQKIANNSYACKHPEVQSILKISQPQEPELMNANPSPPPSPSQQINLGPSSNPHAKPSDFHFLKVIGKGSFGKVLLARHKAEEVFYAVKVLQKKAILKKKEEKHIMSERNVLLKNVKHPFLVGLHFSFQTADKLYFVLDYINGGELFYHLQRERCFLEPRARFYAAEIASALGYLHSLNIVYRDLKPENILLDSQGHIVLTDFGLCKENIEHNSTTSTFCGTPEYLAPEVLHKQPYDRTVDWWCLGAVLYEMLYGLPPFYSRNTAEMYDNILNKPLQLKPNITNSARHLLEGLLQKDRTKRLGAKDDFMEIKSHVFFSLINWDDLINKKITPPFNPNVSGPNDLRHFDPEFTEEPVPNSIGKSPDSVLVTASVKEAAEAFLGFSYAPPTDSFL

The target of another experiment is BTK(R28H)(h) (Homo sapiens, UniProt Q06187, R28H).
For the next experiment, the target named is T3, Src(1-530)(h) (Homo sapiens, UniProt P12931).
T3 construct: Src(1-530)(h)
As to conditions: 100 μM.

In another experiment the target is T4, DYRK2(h) (Homo sapiens, UniProt Q92630).
T4 sequence (Q92630 1-601): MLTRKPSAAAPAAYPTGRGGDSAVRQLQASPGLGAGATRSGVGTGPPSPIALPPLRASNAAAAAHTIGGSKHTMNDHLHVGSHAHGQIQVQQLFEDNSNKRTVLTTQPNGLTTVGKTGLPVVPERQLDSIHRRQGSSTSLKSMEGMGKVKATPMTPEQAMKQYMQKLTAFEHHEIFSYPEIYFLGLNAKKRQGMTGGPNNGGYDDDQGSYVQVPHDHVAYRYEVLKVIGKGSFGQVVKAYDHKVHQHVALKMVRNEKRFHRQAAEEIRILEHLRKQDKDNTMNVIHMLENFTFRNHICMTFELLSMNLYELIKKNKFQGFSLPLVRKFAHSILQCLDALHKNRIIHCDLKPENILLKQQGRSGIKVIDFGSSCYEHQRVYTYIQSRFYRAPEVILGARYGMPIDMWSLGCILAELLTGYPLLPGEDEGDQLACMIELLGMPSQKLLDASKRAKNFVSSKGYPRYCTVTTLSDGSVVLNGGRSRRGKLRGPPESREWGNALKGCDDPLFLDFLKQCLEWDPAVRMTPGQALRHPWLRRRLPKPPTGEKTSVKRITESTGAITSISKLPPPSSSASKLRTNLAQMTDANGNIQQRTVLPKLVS
As to conditions: 100 μM.

The next experiment deals with T5, NEK2(h) (Homo sapiens, UniProt P51955).
T5 sequence (P51955 1-445): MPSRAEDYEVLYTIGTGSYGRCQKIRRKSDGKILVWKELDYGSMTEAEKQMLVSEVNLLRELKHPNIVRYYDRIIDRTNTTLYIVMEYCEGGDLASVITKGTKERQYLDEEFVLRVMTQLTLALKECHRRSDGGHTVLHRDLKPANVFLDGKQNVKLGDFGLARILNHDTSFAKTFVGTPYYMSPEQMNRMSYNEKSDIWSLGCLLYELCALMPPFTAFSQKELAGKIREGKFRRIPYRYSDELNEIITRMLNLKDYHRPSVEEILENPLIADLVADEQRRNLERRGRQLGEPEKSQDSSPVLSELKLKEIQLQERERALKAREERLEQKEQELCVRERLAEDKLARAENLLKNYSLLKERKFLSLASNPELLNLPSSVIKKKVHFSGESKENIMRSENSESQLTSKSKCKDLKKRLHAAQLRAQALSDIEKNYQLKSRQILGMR
As to conditions: 100 μM.

A further experiment addresses Flt3(h) (Homo sapiens, UniProt P36888). As to conditions: 100 μM.
The next experiment deals with mTOR(h) (Homo sapiens, UniProt P42345). As to conditions: 100 μM.
The next experiment addresses PKCη(h) (Homo sapiens, UniProt P24723). The conditions noted are these: 100 μM.

Sequence of BTK(R28H)(h) (Q06187 whole entry R28H): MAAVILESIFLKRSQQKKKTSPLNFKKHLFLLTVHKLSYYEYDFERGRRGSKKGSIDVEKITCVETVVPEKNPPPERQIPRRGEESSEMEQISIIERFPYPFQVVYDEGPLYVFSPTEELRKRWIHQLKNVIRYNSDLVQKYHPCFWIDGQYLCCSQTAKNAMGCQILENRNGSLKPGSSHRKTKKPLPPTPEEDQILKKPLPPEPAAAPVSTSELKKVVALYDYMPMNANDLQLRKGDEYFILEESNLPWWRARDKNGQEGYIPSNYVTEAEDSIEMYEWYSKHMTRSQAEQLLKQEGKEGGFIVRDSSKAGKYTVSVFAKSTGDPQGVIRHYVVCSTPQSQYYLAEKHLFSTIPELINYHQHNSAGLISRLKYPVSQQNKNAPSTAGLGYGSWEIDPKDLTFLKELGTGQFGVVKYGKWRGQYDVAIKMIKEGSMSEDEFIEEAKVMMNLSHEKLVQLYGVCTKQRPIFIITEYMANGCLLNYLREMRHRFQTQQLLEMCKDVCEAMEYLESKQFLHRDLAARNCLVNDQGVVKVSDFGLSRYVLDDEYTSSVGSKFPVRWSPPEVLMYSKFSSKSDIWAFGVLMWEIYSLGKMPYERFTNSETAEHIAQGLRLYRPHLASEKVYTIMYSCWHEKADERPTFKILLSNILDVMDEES
Sequence of PKCη(h) (P24723 whole entry): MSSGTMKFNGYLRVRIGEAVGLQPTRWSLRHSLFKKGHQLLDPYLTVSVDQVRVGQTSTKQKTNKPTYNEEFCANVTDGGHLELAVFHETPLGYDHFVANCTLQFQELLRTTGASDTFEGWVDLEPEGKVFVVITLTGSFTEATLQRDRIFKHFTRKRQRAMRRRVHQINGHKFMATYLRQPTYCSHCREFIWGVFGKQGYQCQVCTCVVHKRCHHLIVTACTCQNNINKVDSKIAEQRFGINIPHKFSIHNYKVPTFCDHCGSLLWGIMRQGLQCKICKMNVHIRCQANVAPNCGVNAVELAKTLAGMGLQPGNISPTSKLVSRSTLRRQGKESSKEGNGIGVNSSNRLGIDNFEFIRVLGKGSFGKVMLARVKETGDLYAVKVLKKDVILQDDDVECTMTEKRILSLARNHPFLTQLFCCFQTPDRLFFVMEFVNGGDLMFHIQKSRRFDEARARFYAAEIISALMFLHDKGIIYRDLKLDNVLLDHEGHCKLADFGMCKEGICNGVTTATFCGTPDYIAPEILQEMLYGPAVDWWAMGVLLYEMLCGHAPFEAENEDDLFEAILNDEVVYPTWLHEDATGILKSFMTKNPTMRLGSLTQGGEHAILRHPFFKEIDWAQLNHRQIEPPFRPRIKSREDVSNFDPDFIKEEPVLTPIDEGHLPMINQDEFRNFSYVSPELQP

On to H-YARAAARQARAKALARQLGVAA-OH [MMI-0100], for which the activity at 100 µM on BrSK2(h) was 129%; at cKit(V654A)(h), 69%; at SGK(h), 128%; on BTK(R28H)(h), 91%.

Regarding “HRRIKAWLKKIKALARQLGVAA (Mammalian) [MMI-0500]”, the “% activity” value with BrSK2(h) (100 μM) stood at 84%; with cKit(V654A)(h) (100 μM) it was 223%; with Src(1-530)(h), 21%; with SGK(h) (100 μM), 2%; with DYRK2(h), 127%; in the experiment with NEK2(h), 0%. For the same substance, the “% activity” value in the experiment with Flt3(h) was determined as 17%; with mTOR(h), 135%; in the experiment with BTK(R28H)(h) (100 μM) it was 10%; with PKCη(h), 45%.

With “YARAAARQARAKALNRQLGVA (Mammalian) [MMI-0200]”, the “% activity” value with Src(1-530)(h) was 75%; with DYRK2(h) it was 142%; with NEK2(h), 97%; with Flt3(h) it was 99%; with mTOR(h) it was 110%; in the experiment with PKCη(h) it was 101%.
